Test results from the DeepSol protein solubility set.

Assay: soluble on expression in E. coli; label from the status in PepcDB or PDB records

Row | Sequence | soluble on expression in E. coli
1 | MSLSFNADEVRFLIDNLPDIDAATGDLALTKKTMISDVAALRARFGEHGRAVAELAGARRSVAGKLPVDWLMCHDSAQQATPMQVSGVRARRLVTALGEGTTAVDVTCSIGTEGHAVGQVGMGYIGSDLDQARLLMARYNLGGGVDKHPPHLLRADALAPAVTGADVIIADPARRAGGRRITDPAQLLPPLPDLLTAWEGHAMAVKCAPGLDFSGWTGLVSLVSVDGGVKEACLYTPDLADGETREAVILRGDRMDRITDALDDAPGEQLAREPGEFIIDPDGAVVRAGLVRHYAVREGLWMLDERIAYLTGDRIPAGTSGFRFIEQVPLKKLKGALTAHGAGSVEILVRGVDVDPDQLRKKLGLKGDRAMSVVITRIGSAGVALVCGAREWNGEGHHHHHH | soluble
2 | MSLSFSTLMDKRERGSFDSQFLIAMPGLDDGNFARSVIYICAHSDAGAMGFIINRPQQITFTDILLHLKLVDSNDAIMLPNRTREFPIQCGGPVESGRGFVLHSDDYLSESSIPVSDDISLTATLDIVRAISNGRGPQKATMMLGYAGWGPGQLENEIANNGWLNCPAAEELIFDRGLDNKYERALALMGVDARMLSTDAGHAEGHHHHHH | not soluble
3 | MSLSGAVFKTFLTSEHASWNRFNRRLHIPNEDIVDEIQLKARMQQRHHRVYPEIGDSTIVSFRGKDYAVHFIKDGPKDDYVYKVQRITPENGCFSTLFSVFSGGVTKALERKLNERHITPLSSTWFPRTPLEGILAERGLSSLLRRVQSTERLDNRAIATRASSYSVL | not soluble
4 | MSLSGETLYQQLVNEWMELIRNGTVRPGERLPSVRKACAMHKVSPSTILQTYRMLEDRGLIEARPQSGFYVKSAASLPLPRMRRQSAAHHTGEVVDQIEAVMGVQSQADFIDLALASPRGSDFYPTTRFKHIMGRLLRQHPELTTDYPFPPGSERLRRQIAQRAVNWGCVLAADELVISNGCTEALQLALRAVCKPGDTVGVESPTYFALLPMLKDLGLAVIEIPTHPTSGLALDALELLLSEKRLNAVVAMPTVHNPLGSTMPPEAKRRLAQLVNDYQVPLIEDVPHAELFYGASTPDAVKAYDRDGWVLLCSSYSKTLAPGFRIGWIAPGRFLSEVRRLKFSSSLGQPALLEETLAEYLESGGYDHHLRLLRRHFISQMEKLRGAVAQHFPDGTRATLPSGGCLLWVELPSHADTMQLFRAALAERITVVPGAMYSAKGRYRNCLRLSCCYPWNEAYQRALIRVGELAGELAEGHEGHHHHHH | soluble
5 | MSLSIALIAPYESLATLCRSICQELDLDVSVHTGSMEDGVRIARNLMAEGVDFFISRGLTAQLIREQCPLPVAELEVSAFDIYLCLEPLLRSGKSIGVVGHSDILRKAKGASAALGFTIDFYATAHPGGMGHIMEAARRQGIAAIAGDAVAARTAERYGMEGVLVQNGADSVTNTLQYAVATYSYLTRQATMAGEGHHHHHH | not soluble
6 | MSLSIKLIAVDMDGTFLSDQKTYNRERFMAQYQQMKAQGIRFVVASGNQYYQLISFFPEIANEIAFVAENGGWVVSEGKDVFNGELSKDAFATVVEHLLTRPEVEIIACGKNSAYTLKKYDDAMKTVAEMYYHRLEYVDNFDNLEDIFFKFGLNLSDELIPQVQKALHEAIGDIMVPVHTGNGSIDLIIPGVHKANGLRQLQKLWGIDDSEVVVFGDGGNDIEMLRQAGFSFAMENAGSAVVAAAKYRAGSNNREGVLDVIDKVLKHEAPFKEGHHHHHH | soluble
7 | MSLSIWGLVNEEDAEIDEDDLSKQEDGGEQPLRKVRTLAQSKPSDKEVILKTDGTFGTLSGKDDSIVEEKAYEPDLSDADFEGIEASPKLDVSKDWVEQLILAGSSLRSVFATSKEFDGPCQNEIDLLFSECNDEIDNAKLIMKERRFTASYTFAKFSTGSMLLTKDIVGKSGVSIKRLPTELQRKFLFDDVYLDKEIEKVTIEARKSNPYPQISESSLLFKDALDYMEKTSSDYNLWKLSSILFDPVSYPYKTDNDQVKMALLKKERHCRLTSWIVSQIGPEIEEKIRNSSNEIEQIFLYLLLNDVVRASKLAIESKNGHLSVLISYLGSNDPRIRDLAELQLQKWSTGGCSIDKNISKIYKLLSGSPFEGLFSLKELESEFSWLCLLNLTLCYGQIDEYSLESLVQSHLDKFSLPYDDPIGVIFQLYAANENTEKLYKEVRQRTNALDVQFCWYLIQTLRFNGTRVFSKETSDEATFAFAAQLEFAQLHGHSLFVSCFLNDDKAAEDTIKRLVMREITLLRASTNDHILNRLKIPSQLIFNAQALKDRYEGNYLEGHHHHHH | not soluble
8 | MSLSKNRNIIEGRILSFDKSPFSKDFDLSSLKIDKKRIFIIDGIIESIEPVNFINPEFQDIEIIDYGDHLISAGFVDAHVHYPQTAIVASWGKRLIDWLNTYTFPEEMRFSNLNYASEIAARYIDFSLSNGTTTMASYCTIHPESVDAFFKSAAVKNMCVVGGKTCMDRNAPGDLCDSAKSAYDDSKALLQKWHHKGRAHYAITPRFSPTSTPDQLLALGSLWSEFPGCLMQTHLSEQVDEIDWVRKLFPNARDYLDTYETFGLLGERGVYGHAIHLEAREIDRLSEVGASLIHCPTSNTFIGSGLFNMEDLTSRSLKVGLASDIGGGSSFSMLRTMAGAYEVAQLRGLALHPSQLMWLATQGSAKALHLDNQIGNIAPGMAADLVVLDLSSTPTISQRSARANDVWEELFPTIMMGDDRAIAATYVAGKKIEGHHHHHH | soluble
9 | MSLSKSLQKPTILNVETVARSRLFTVESVDLEFSNGVRRVYERMRPTNREAVMIVPIVDDHLILIREYAVGTESYELGFSKGLIDPGESVYEAANRELKEEVGFGANDLTFLKKLSMAPSYFSSKMNIVVAQDLYPESLEGDEPEPLPQVRWPLAHMMDLLEDPDFNEARNVSALFLVREWLKGQGRVEGGSHHHHHH | soluble
10 | MSLSKSMARARNRCLPMNFRAEDLASGILRERVKVGASLADVDPMNIDKSVRFDSIGGLSHHIHALKEMVVFPLLYPEIFEKFKIQPPRGCLFYGPPGTGKTLVARALANECSQGDKKVAFFMRKGADCLSKWVGESERQLRLLFDQAYLMRPSIIFFDEIDGLAPVRSSRQDQIHSSIVSTLLALMDGLDNRGEIVVIGATNRLDSIDPALRRPGRFDREFLFNLPDQKARKHILQIHTRDWNPKLSDAFLGELAEKCVGYCGADIKALCTEAALIALRRRYPQIYASSHKLQLDVSSIVLSAQDFYHAMQNIVPASQRAVMSSGHALSPIIRPLLERSFNNILAVLQKVFPHAEISQSDKKEDIETLILEDSEDENALSIFETNCHSGSPKKQSSSAAIHKPYLHFTMSPYHQPTSYRPRLLLSGERGSGQTSHLAPALLHTLERFSVHRLDLPALYSVSAKTPEESCAQIFREARRTVPSIVYMPHIGDWWEAVSETVRATFLTLLQDIPSFSPIFLLSTSETMYSELPEEVKCIFRIQYEEVLYIQRPIEEDRRKFFQELILNQASMAPPRRKHAALCAMEVLPLALPSPPREGHHHHHH | not soluble
11 | MSLSLTPLSEKLRPNNLDTFIGQNHLLERLQYIISAPRLPSMLFFGPPGCGKSTLALLLAYKKSTNILRISAPETGIQQLRQKLTDIDILILDEIHRFSKAQQDFFLPLLESGKLTMLATTTENPSFSVTKQLLSRLNVLQLRQLGYNELKELVKKGTLFLNILLPDDVINFLATTAHGDARTLFNLIEYISILPEEKRVLEYIKINLPEILERHDKDGDSHYEYASALIKSIRGSNPDAALYYLACLLEGGEDPRFICRRLIISASEDIGLADPQALSLAVSCQQAVEFVGMPEGFIPLSETVVYLALARKSNSTYAAYSNAAREVRLHGAQPVPLHLRNPSTQLQKQWGYGREYKYPHNYPNAWVEQEYFPSTISNRSFYYPKEQGEEPKLNMWHNHIKKKYSEGHHHHHH | not soluble
12 | MSLSLWQQCLARLQDELPATEFSMWIRPLQAELSDNTLALYAPNRFVLDWVRDKYLNNINGLLNTFCGADAPQLRFEVGTKPVTQTLKTPVHNVVAPAQTTTAQPQRVAPAARSGWDNVPAPAEPTYRSNVNVKHTFDNFVEGKSNQLARAAARQVADNPGGAYNPLFLYGGTGLGKTHLLHAVGNGIMARKPNAKVVYMHSERFVQDMVKALQNNAIEEFKRYYRSVDALLIDDIQFFANKERSQEEFFHTFNALLEGNQQIILTSDRYPKEINGVEDRLKSRFGWGLTVAIEPPELETRVAILMKKADENDIRLPGEVAFFIAKRLRSNVRELEGALNRVIANANFTGRAITIDFVREALRDLLALQEKLVTIDNIQKTVAEYYKIKIADLLSKRRSRSVARPRQMAMALAKELTNHSLPEIGDAFGGRDHTTVLHACRKIEQLREESHDIKEDFSNLIRTLSSLEHHHHHH | not soluble
13 | MSLSPALSAPKPLRFPANPAPTALKQFALTLQSESYRYRTPMKFGGRVVEEVTVLTAQCTATNQAGQVADGDQIGIGSMTMGVAWAWPDASVADGTKLEVVLELASRMAAQVNEASGTLTGHPMEICLQLASQREDLVAAVAAGHDLTAPIPELAILLAASPIEAALFDAHGKAAGQSSYSLLSAEHLPPDLGEMTGDDRYAGLRLDQFISSSPVATLPLYHLVGALDPLTQDDLAEPVGDGLPETLGEWITRNELTHLKIKLNGDDADWDFRRVRDINTVANETTDRGSSTGKPWWFSLDFNERCEDEAYVLGLLDRLESECPEAFERIQYIEQPTHRDLKRPGAVTMHQAAARIPVVIDESLTGLESLHLAVSQGYSGIALKACKGHAEALLLGAIAVHENLFLCVQDLTCVGASLLHSASLSAHIPGVAAVESNGRQYCPEGNAEWMACFGPMFEVRGGSVPTSCLDGPGLGYEGHHHHHH | soluble
14 | MSLSPEHKRTALVTGANSGLGKAIVTALAADGLRVGLVARDRGRGEAALADVRAATGNQDLHLFVADLADQESIRALAQDVRARFDRLHLLINNAGTAFPERRLSPQGIERAFAINHLGPFLLTNLLLDLIKASAPARIVNVGTRIDAAIDFDDLNWDKRPYGMMKGYAQSKLGNLHFTFELARRLEGSGVTVNCVFPGVFKSNLGGTDGAQGLFWKLLAKLGGWAIPKPESAAQRVLYLANAPELESVSGQYYANRKTIPAPAQALDAEANRRLWEISERMTGLTQSQTVGDQAATEGHHHHHH | soluble
15 | MSLSQLEPRQQAFRNAMAHLSAAVNVITSNGPAGRCGITATAVCSVTDSPPTLMLCINRNSEMNTVFKANGRLCVNVLSGEHEEVARHFAGMTEVPMERRFALHDWREGLAGLPVLHGALANLQGRIAEVQEIGTHSVLLLELEDIQVLEQGDGLVYFSRSFHRLQCPEGGSHHHHHH | soluble
16 | MSLSQSLWQRLFNHRQQTKQAVLILGSGRSGTSVMTKCVNLMGISLGTDNLLAPSKRINPKGYFENKDVINIHKSLGSRIRYRPAFKDYYDSPKIKKDRAALTTYLRNFFENEQYLAIKDPRMNDYIELWQRVLADVEVQPAEIVLLRNPMDVVNSNERAWHRDTTLAMRQWQVRTLLSLRDTDREHRILVTYEDLFGQTLTTLKRIATQFNLPWTSDEAALQAQIDDFIDPALQKSDSGENLADFEARTDVKPDVKALYLLGRQAAADPDYFASAEFQQRIDEMTDEYLAKYGALYRDFNEGHHHHHH | soluble
17 | MSLSRGRLKIAVPRLQRVANFDDLDPLVAEPDIDLQWIQPGSPIPADVDVVVLPGSKATRTELDLMRREGWDIDIHAHVRRGGRVVGLCAGFQMLGKVVRDPQGIEGPAGETAGLGLLDIETEISGDKRLIEIDAVDRISGCRVVGYEMHMGRTTGAGLARPWLRLEEGGSERAEGAVSADGRVSGGYLHGIFGGDAFRSAWLAQIGAASSGLDFERRVEETLDALADHCESNLDLDALLALAREGHHHHHH | soluble
18 | MSLSSPNILLTRIDNRLVHGQVGVTWTSTIGANLLVVVDDVVANDDIQQKLMGITAETYGFGIRFFTIEKTINVIGKAAPHQKIFLICRTPQTVRKLVEGGIDLKDVNVGNMHFSEGKKQISSKVYVDDQDLTDLRFIKQRGVNVFIQDVPGDQKEQIPDEGHHHHHH | soluble
